# In publication PMC2877719 (2010):
# No end group written: not given here.
# Target: calmodulin (Homo sapiens, UniProt P0DP23)
# Assay: FCS
row,Binder,Kd
1,LRKRIVFRKI (also: GST fusion),> 5000 nM
2,"LRKRIVFRKI (also: fluorescent label, unspecified)",327 nM

# More lines, now with the values ahead:
row,Kd,Binder
1,45 nM,"FARLTRALTSSRGVL (also: fluorescent label, unspecified) [hEAG1 BD-N]"
2,223 nM,"RRLFQRFRQQK (also: fluorescent label, unspecified) [hEAG1 BD-C2]"
